Data: patent US20260174875A1 (Novo Nordisk A/S, priority 2023, published 2026)
Numbered stars: 1 amine (or outer) side, 2 acyl side, 3 side chain; on linkers, the order of the positions; unused ones are H or OH. Square brackets hold non-standard residues; d marks the D form. Side chains are listed from the residue outwards. * marks the point of attachment. C20 diacid = O=C(O)CCCCCCCCCCCCCCCCCCC(=O)*; C18 diacid = O=C(O)CCCCCCCCCCCCCCCCC(=O)*; C16 diacid = O=C(O)CCCCCCCCCCCCCCC(=O)*; γGlu = O=C(O)[C@H](CCC(=O)[*:2])N[*:1]; Chem. 28 = not defined here; AEEA = NCCOCCOCC(=O)O; Aib = CC(C)(N)C(=O)O

T1: human GIP receptor (human, UniProt P48546 22-466)
T1 sequence (looked up): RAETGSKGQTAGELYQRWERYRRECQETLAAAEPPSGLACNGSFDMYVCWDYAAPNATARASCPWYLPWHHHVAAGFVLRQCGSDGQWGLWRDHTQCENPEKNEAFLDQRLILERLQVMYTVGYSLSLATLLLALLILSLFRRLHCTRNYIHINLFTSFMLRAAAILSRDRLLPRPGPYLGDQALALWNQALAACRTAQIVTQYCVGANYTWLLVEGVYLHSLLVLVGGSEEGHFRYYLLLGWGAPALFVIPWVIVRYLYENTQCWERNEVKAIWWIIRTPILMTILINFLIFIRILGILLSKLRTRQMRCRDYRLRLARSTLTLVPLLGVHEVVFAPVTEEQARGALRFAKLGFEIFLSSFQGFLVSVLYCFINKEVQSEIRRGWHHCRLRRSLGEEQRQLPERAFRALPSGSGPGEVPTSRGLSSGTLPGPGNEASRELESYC

T2: human amylin-3(a) receptor (human, UniProt P30988 25-474; O60896 24-148)
T2 sequence (looked up) 1: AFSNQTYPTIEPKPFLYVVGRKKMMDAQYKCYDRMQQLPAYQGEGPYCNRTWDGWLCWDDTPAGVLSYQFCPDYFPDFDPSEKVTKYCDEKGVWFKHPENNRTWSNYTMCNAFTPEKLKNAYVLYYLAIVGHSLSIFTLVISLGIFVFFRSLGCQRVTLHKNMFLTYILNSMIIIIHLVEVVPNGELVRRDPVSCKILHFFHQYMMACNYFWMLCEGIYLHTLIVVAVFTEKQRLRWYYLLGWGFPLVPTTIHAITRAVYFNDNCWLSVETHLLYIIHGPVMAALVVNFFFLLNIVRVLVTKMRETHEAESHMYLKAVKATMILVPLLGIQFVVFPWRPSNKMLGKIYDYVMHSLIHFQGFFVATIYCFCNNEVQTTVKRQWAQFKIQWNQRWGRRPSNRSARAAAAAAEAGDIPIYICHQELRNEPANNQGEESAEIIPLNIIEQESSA
T2 sequence (looked up) 2: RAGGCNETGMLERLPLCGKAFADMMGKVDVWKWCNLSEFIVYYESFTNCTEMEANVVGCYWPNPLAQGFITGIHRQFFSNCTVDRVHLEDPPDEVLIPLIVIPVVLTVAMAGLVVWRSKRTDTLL


How the values were obtained:
Test in all cases: cell-based or functional assay
human GLP-1 receptor [1] = molecular target: T3, human GLP-1 receptor (human, UniProt P43220 24-463)
human GIP receptor [2] = molecular target: T1, human GIP receptor
[3] = molecular target: T2, human amylin-3(a) receptor
human GLP-1 receptor [4] = molecular target: T3, human GLP-1 receptor; remark: listed apart in the source
human GIP receptor [5] = molecular target: T1, human GIP receptor; remark: listed apart in the source
[6] = molecular target: T2, human amylin-3(a) receptor; remark: listed apart in the source

Row | Binder | hGLP-1R Potency, 1% HSA, EC50 [pM] (human GLP-1 receptor [1]) | hGIPR Potency, 1% HSA, EC50 [pM] (human GIP receptor [2]) | hAMYR3 Potency, 1% HSA, EC50 [pM] [3] | hGLP-1R Potency, no HSA, EC50 [pM] (human GLP-1 receptor [4]) | hGIPR Potency, no HSA, EC50 [pM] (human GIP receptor [5]) | hAMYR3 Potency, no HSA, EC50 [pM] [6]
1 | Compound 58 (reading uncertain) peptide: Y[Aib]EGTFTSDYSILLEEQAAREFIEWLLAGGPSSGAGQAPGQAPLASHLSTAQTQRLSAELHK(Chem. 28)LATLPRTETGSGSP-NH2 | 25.6 pM | 7.58 pM | 134 pM | 12.7 pM | 1.88 pM | 2.91 pM
2 | Compound 62 (peptide) peptide: H[Aib]HGTFTSDYSILLEEQAAREFIEWLLAGGPSK([AEEA-AEEA-γGlu-C16 diacid])GEASQLSTAALGRLSAELHRLADLPRTETGSGSP-NH2 | 11.5 pM | 47.2 pM | 28.8 pM | 4.13 pM | 2.26 pM | 3.35 pM
3 | Compound 59 (peptide) peptide: Y[Aib]EGTFTSDYSILLEEQAAREFIEWLLAGGPSSGALAQTLAQTLASHLSTAQTQRLSAELHK([AEEA-AEEA-γGlu-C16 diacid])LATLPRTETGSGSP-NH2 | 39.8 pM | 27.2 pM | 24.2 pM | 50.6 pM | 7.72 pM | 3.85 pM
4 | Compound 61 (peptide) peptide: H[Aib]HGTFTSDYSILLEEQAAREFIEWLLAGGPSK([AEEA-AEEA-γGlu-C16 diacid])GAPPPSGGGEASHLSTAQTARLSAELHRLADLPRTETGSGSP-NH2 | 14.7 pM | 16 pM | 30.8 pM | 2.79 pM | 1.3 pM | 2.97 pM
5 | Compound 50 (reading uncertain) peptide: Y[Aib]EGTFTSDYSILLEEQAAREFIEWLLAGGPSSGEASHLSTAQTQRLSAELHK(Chem. 28)LATLPRTETGSGSP-NH2 | 66.3 pM | 15.1 pM | 185 pM | 16.2 pM | 2.36 pM | 3.2 pM
6 | Compound 52 (reading uncertain) peptide: Y[Aib]EGTFTSDYSILLEEQAAREFIEWLLAGGPSSGAGQAPGQAPGASHLSTAQTQRLSAELHK(Chem. 28)LATLPRTETGSGSP-NH2 | 26.9 pM | 6.79 pM | 119 pM | 11 pM | 1.83 pM | 2.85 pM
7 | Compound 67 (peptide) peptide: Y[Aib]EGTFTSDYSILLEEQAAREFIEWLLAGGPSRGEASELSTAALGRLSAELHK([AEEA-AEEA-γGlu-C18 diacid])LATLPRTETGSGSP-NH2 | 105 pM | 37 pM | 190 pM | 15.4 pM | 4.28 pM | 3.66 pM
8 | Compound 49 (reading uncertain) peptide: Y[Aib]EGTFTSDYSILLEEQAAREFIEWLLAGGPSSGAPPPSGGGEASHLSTAQTQRLSAELHK(Chem. 28)LATLPRTETGSGSP-NH2 | 110 pM | 16.7 pM | 106 pM | 33.3 pM | 4.36 pM | 1.85 pM
9 | Compound 65 (peptide) peptide: H[Aib]HGTFTSDYSILLEEQAAREFIEWLLAGGPSK([AEEA-AEEA-γGlu-C18 diacid])GEASQLSTAALGRLSAELHGLATLPRTETGSGSP-NH2 | 100 pM | 118 pM | 127 pM | 4.86 pM | 1.89 pM | 2.84 pM
10 | Compound 55 (reading uncertain) peptide: Y[Aib]EGTFTSDYSILLEEQAAREFIEWLLAGGPSSGAGQAPGQAPGASHLSTAQTQRLSAK(Chem. 28)LHRLATLPRTETGSGSP-NH2 | 45.3 pM | 10.3 pM | 34 pM | 23 pM | 3 pM | 2.22 pM
11 | Compound 53 (reading uncertain) peptide: Y[Aib]EGTFTSDYSILLEEQAAREFIEWLLAGGPSSGAGQAPGQAPGASHLSTAALGRLSAELHK(Chem. 28)LATLPRTETGSGSP-NH2 | 79.2 pM | 14.6 pM | 75.9 pM | 23.3 pM | 3.25 pM | 3.22 pM
12 | Compound 63 (peptide) peptide: H[Aib]HGTFTSDYSILLEEQAAREFIEWLLAGGPSK([AEEA-AEEA-γGlu-C18 diacid])GEASQLSTAALGRLSAELHTLATLPRTETGSGSP-NH2 | 101 pM | 63.2 pM | 70.2 pM | 4.77 pM | 1.6 pM | 2.86 pM
13 | Compound 51 (reading uncertain) peptide: H[Aib]HGTFTSDYSILLEEQAAREFIEWLLAGGPSSGALAQTLAQTLASHLSTAQTQRLSAELHK(Chem. 28)LATLPRTETGSGSP-NH2 | 32.2 pM | 61.9 pM | 57.1 pM | 7.68 pM | 8.37 pM | 6.19 pM
14 | Compound 64 (peptide) peptide: H[Aib]HGTFTSDYSILLEEQAAREFIEWLLAGGPSK([AEEA-AEEA-γGlu-C18 diacid])GEASQLSTAALGRLSAELHQLATLPRTETGSGSP-NH2 | 67.8 pM | 100 pM | 109 pM | 3.71 pM | 2.03 pM | 1.91 pM
15 | Compound 57 (reading uncertain) peptide: Y[Aib]EGTFTSDYSILLEEQAAREFIEWLLAGGPSSGAGQAPGQAPGASHLSTAQTQRLSAELHRLATLPK(Chem. 28)TETGSGSP-NH2 | 29.6 pM | 5.85 pM | 85 pM | 12.8 pM | 1.98 pM | 3 pM
16 | Compound 60 (peptide) peptide: Y[Aib]EGTFTSDYSILLEEQAAREFIEWLLAGGPSSGALAQTLAQTLASHLSTAQTQRLSAELHK([AEEA-AEEA-γGlu-C20 diacid])LATLPRTETGSGSP-NH2 | 173 pM | 28.3 pM | 191 pM | 94.4 pM | 6.06 pM | 3.85 pM
17 | Compound 56 (reading uncertain) peptide: Y[Aib]EGTFTSDYSILLEEQAAREFIEWLLAGGPSSGAGQAPGQAPGASHLSTAQTQRLSAELHRLK(Chem. 28)TLPRTETGSGSP-NH2 | 58.4 pM | 8.48 pM | 44.9 pM | 18.2 pM | 2.65 pM | 2.36 pM
